Measured values as given in ChEMBL document CHEMBL1137666, “Biochemical Characterization of SFC-1, a class A carbapenem-hydrolyzing beta-lactamase” (Antimicrob Agents Chemother, 2007).

Assays:
[1] = substrate: C[C@@H](O)[C@H]1C(=O)N2C(C(=O)O)=C(S[C@@H]3CN[C@H](C(=O)N(C)C)C3)[C@H](C)[C@H]12; test: (§1) Activity of Serratia fonticola UTAD54 SFC1 beta lactamase expressed in Escherichia coli BL21(DE3) by SDS-PAGE
[2] = substrate: CC(C)(O/N=C(\C(=O)N[C@@H]1C(=O)N2C(C(=O)[O-])=C(C[n+]3ccccc3)CS[C@H]12)c1csc(N)n1)C(=O)O; test: as §1
[3] = substrate: CO[C@@]1(NC(=O)Cc2cccs2)C(=O)N2C(C(=O)O)=C(COC(N)=O)CS[C@@H]21; test: as §1
[4] = substrate: CCN1CCN(C(=O)N[C@@H](C(=O)N[C@@H]2C(=O)N3[C@@H]2SC(C)(C)[C@@H]3C(=O)O)c2ccccc2)C(=O)C1=O; test: as §1
[5] = substrate: CO/N=C(\C(=O)N[C@@H]1C(=O)N2C(C(=O)O)=C(COC(C)=O)CS[C@H]12)c1csc(N)n1; test: as §1
[6] = substrate: CC(=O)OCC1=C(C(=O)O)N2C(=O)[C@@H](NC(=O)Cc3cccs3)[C@H]2SC1; test: as §1
[7] = substrate: C[C@@H](O)[C@H]1C(=O)N2C(C(=O)O)=C(SCCNC=N)C[C@H]12; test: as §1
[8] = substrate: C[C@H]1[C@H](NC(=O)/C(=N\OC(C)(C)C(=O)O)c2csc(N)n2)C(=O)N1S(=O)(=O)O; test: as §1
[9] = substrate: CC1(C)S[C@@H]2[C@H](NC(=O)[C@H](N)c3ccccc3)C(=O)N2[C@H]1C(=O)O; test: as §1
[10] = substrate: C[C@@H](O)[C@H]1C(=O)N2C(C(=O)O)=C(S[C@@H]3CN[C@H](C(=O)N(C)C)C3)[C@H](C)[C@H]12; test: (§2) Ratio of Kcat to Km for Serratia fonticola UTAD54 SFC1 beta lactamase expressed in Escherichia coli BL21(DE3) by SDS-PAGE
[11] = substrate: CC(C)(O/N=C(\C(=O)N[C@@H]1C(=O)N2C(C(=O)[O-])=C(C[n+]3ccccc3)CS[C@H]12)c1csc(N)n1)C(=O)O; test: as §2
[12] = substrate: CO[C@@]1(NC(=O)Cc2cccs2)C(=O)N2C(C(=O)O)=C(COC(N)=O)CS[C@@H]21; test: as §2
[13] = substrate: CCN1CCN(C(=O)N[C@@H](C(=O)N[C@@H]2C(=O)N3[C@@H]2SC(C)(C)[C@@H]3C(=O)O)c2ccccc2)C(=O)C1=O; test: as §2
[14] = substrate: CO/N=C(\C(=O)N[C@@H]1C(=O)N2C(C(=O)O)=C(COC(C)=O)CS[C@H]12)c1csc(N)n1; test: as §2
[15] = substrate: CC(=O)OCC1=C(C(=O)O)N2C(=O)[C@@H](NC(=O)Cc3cccs3)[C@H]2SC1; test: as §2
[16] = substrate: C[C@@H](O)[C@H]1C(=O)N2C(C(=O)O)=C(SCCNC=N)C[C@H]12; test: as §2
[17] = substrate: C[C@H]1[C@H](NC(=O)/C(=N\OC(C)(C)C(=O)O)c2csc(N)n2)C(=O)N1S(=O)(=O)O; test: as §2
[18] = substrate: CC1(C)S[C@@H]2[C@H](NC(=O)[C@H](N)c3ccccc3)C(=O)N2[C@H]1C(=O)O; test: as §2
[19] = substrate: C[C@@H](O)[C@H]1C(=O)N2C(C(=O)O)=C(S[C@@H]3CN[C@H](C(=O)N(C)C)C3)[C@H](C)[C@H]12; test: (§3) Ratio of Kcat to Km for Klebsiella pneumoniae KPC-1 beta lactamase expressed in Escherichia coli DH5alpha by SDS-PAGE
[20] = substrate: CC(C)(O/N=C(\C(=O)N[C@@H]1C(=O)N2C(C(=O)[O-])=C(C[n+]3ccccc3)CS[C@H]12)c1csc(N)n1)C(=O)O; test: as §3
[21] = substrate: CO[C@@]1(NC(=O)Cc2cccs2)C(=O)N2C(C(=O)O)=C(COC(N)=O)CS[C@@H]21; test: as §3
[22] = substrate: CCN1CCN(C(=O)N[C@@H](C(=O)N[C@@H]2C(=O)N3[C@@H]2SC(C)(C)[C@@H]3C(=O)O)c2ccccc2)C(=O)C1=O; test: as §3
[23] = substrate: CO/N=C(\C(=O)N[C@@H]1C(=O)N2C(C(=O)O)=C(COC(C)=O)CS[C@H]12)c1csc(N)n1; test: as §3
[24] = substrate: CC(=O)OCC1=C(C(=O)O)N2C(=O)[C@@H](NC(=O)Cc3cccs3)[C@H]2SC1; test: as §3
[25] = substrate: C[C@@H](O)[C@H]1C(=O)N2C(C(=O)O)=C(SCCNC=N)C[C@H]12; test: as §3
[26] = substrate: C[C@H]1[C@H](NC(=O)/C(=N\OC(C)(C)C(=O)O)c2csc(N)n2)C(=O)N1S(=O)(=O)O; test: as §3
[27] = substrate: CC1(C)S[C@@H]2[C@H](NC(=O)[C@H](N)c3ccccc3)C(=O)N2[C@H]1C(=O)O; test: as §3
[28] = substrate: C[C@@H](O)[C@H]1C(=O)N2C(C(=O)O)=C(S[C@@H]3CN[C@H](C(=O)N(C)C)C3)[C@H](C)[C@H]12; test: (§4) Activity of Klebsiella pneumoniae KPC-1 beta lactamase expressed in Escherichia coli DH5alpha by SDS-PAGE
[29] = substrate: CC(C)(O/N=C(\C(=O)N[C@@H]1C(=O)N2C(C(=O)[O-])=C(C[n+]3ccccc3)CS[C@H]12)c1csc(N)n1)C(=O)O; test: as §4
[30] = substrate: CO[C@@]1(NC(=O)Cc2cccs2)C(=O)N2C(C(=O)O)=C(COC(N)=O)CS[C@@H]21; test: as §4
[31] = substrate: CCN1CCN(C(=O)N[C@@H](C(=O)N[C@@H]2C(=O)N3[C@@H]2SC(C)(C)[C@@H]3C(=O)O)c2ccccc2)C(=O)C1=O; test: as §4
[32] = substrate: CO/N=C(\C(=O)N[C@@H]1C(=O)N2C(C(=O)O)=C(COC(C)=O)CS[C@H]12)c1csc(N)n1; test: as §4
[33] = substrate: CC(=O)OCC1=C(C(=O)O)N2C(=O)[C@@H](NC(=O)Cc3cccs3)[C@H]2SC1; test: as §4
[34] = substrate: C[C@@H](O)[C@H]1C(=O)N2C(C(=O)O)=C(SCCNC=N)C[C@H]12; test: as §4
[35] = substrate: C[C@H]1[C@H](NC(=O)/C(=N\OC(C)(C)C(=O)O)c2csc(N)n2)C(=O)N1S(=O)(=O)O; test: as §4
[36] = substrate: CC1(C)S[C@@H]2[C@H](NC(=O)[C@H](N)c3ccccc3)C(=O)N2[C@H]1C(=O)O; test: as §4

B1: Carbapenem-hydrolizing beta-lactamase SFC-1 (Serratia fonticola), Q6JP75 (protein)
chain: MSRTGRLSVFFSAIFPLLTLTNMAEAASQPPQVTVDKLKRLENDFGGRIGVYAIDTGSNKTFGYRANERFPLCSSFKGFLAAAVLSKSQQQEGLLNQRIRYDNRVMEPHSPVTEKQITTGMTVAELSAATLQYSDNGAANLLLEKLIGGPEGMTSFMRSIGDNVFRLDRWELELNSAIPGDDRDTSTPKAVAESMQKLAFGNVLGLTERHQLMDWFKGNTTGGARIRASVPANWVVGDKTGTCGVYGTANDYAVIWPVGHAPIVLAVYTSKPDKNSKHSDAVIADASRIVLESFNIDALRMATGKSIGF
- Km [1]: 26 µM
- kcat [1]: 6.5 s⁻¹
- Km [2]: 52 µM
- kcat [2]: 2.1 s⁻¹
- Km [3]: 77 µM
- kcat [3]: 4.2 s⁻¹
- Km [4]: 38 µM
- kcat [4]: 44.7 s⁻¹
- Km [5]: 89 µM
- kcat [5]: 8.3 s⁻¹
- Km [6]: 129 µM
- kcat [6]: 280 s⁻¹
- Km [7]: 82 µM
- kcat [7]: 54 s⁻¹
- Km [8]: 484 µM
- kcat [8]: 162 s⁻¹
- Km [9]: 176 µM
- kcat [9]: 155 s⁻¹
- kcat/Km [10]: 250000 M⁻¹ s⁻¹
- kcat/Km [11]: 40400 M⁻¹ s⁻¹
- kcat/Km [12]: 54500 M⁻¹ s⁻¹
- kcat/Km [13]: 1.19e+06 M⁻¹ s⁻¹
- kcat/Km [14]: 93300 M⁻¹ s⁻¹
- kcat/Km [15]: 2.17e+06 M⁻¹ s⁻¹
- kcat/Km [16]: 659000 M⁻¹ s⁻¹
- kcat/Km [17]: 335000 M⁻¹ s⁻¹
- kcat/Km [18]: 881000 M⁻¹ s⁻¹

B2: Carbapenem-hydrolyzing beta-lactamase KPC (Klebsiella pneumoniae), Q9F663 (protein)
chain: MSLYRRLVLLSCLSWPLAGFSATALTNLVAEPFAKLEQDFGGSIGVYAMDTGSGATVSYRAEERFPLCSSFKGFLAAAVLARSQQQAGLLDTPIRYGKNALVPWSPISEKYLTTGMTVAELSAAAVQYSDNAAANLLLKELGGPAGLTAFMRSIGDTTFRLDRWELELNSAIPGDARDTSSPRAVTESLQKLTLGSALAAPQRQQFVDWLKGNTTGNHRIRAAVPADWAVGDKTGTCGVYGTANDYAVVWPTGRAPIVLAVYTRAPNKDDKHSEAVIAAAARLALEGLGVNGQ
- kcat/Km [19]: 250000 M⁻¹ s⁻¹
- kcat/Km [20]: 1000 M⁻¹ s⁻¹
- kcat/Km [21]: 2000 M⁻¹ s⁻¹
- kcat/Km [22]: 1.33e+06 M⁻¹ s⁻¹
- kcat/Km [23]: 90000 M⁻¹ s⁻¹
- kcat/Km [24]: 1.4e+06 M⁻¹ s⁻¹
- kcat/Km [25]: 150000 M⁻¹ s⁻¹
- kcat/Km [26]: 70000 M⁻¹ s⁻¹
- kcat/Km [27]: 850000 M⁻¹ s⁻¹
- Km [28]: 12 µM
- kcat [28]: 3 s⁻¹
- Km [29]: 94 µM
- kcat [29]: 0.1 s⁻¹
- Km [30]: 120 µM
- kcat [30]: 0.26 s⁻¹
- Km [31]: 18 µM
- kcat [31]: 24 s⁻¹
- Km [32]: 160 µM
- kcat [32]: 14 s⁻¹
- Km [33]: 53 µM
- kcat [33]: 75 s⁻¹
- Km [34]: 81 µM
- kcat [34]: 12 s⁻¹
- Km [35]: 310 µM
- kcat [35]: 20 s⁻¹
- Km [36]: 130 µM
- kcat [36]: 110 s⁻¹
